Reference: the Human Domainome abundance scans (Beltran et al. 2025)
± gives the uncertainty stated by the source.

B1: POU domain, class 4, transcription factor 1, residues 266 to 347; numbered along this chain, Q01851 (parent)
chain: RELEAFAERFKQRRIKLGVTQADVGSALANLKIPGVGSLSQSTICRFESLTLSHNNMIALKPILQAWLEEAEGAQREKMNKP

Variants of: B1
Test: abundance fitness (aPCA) (normalised: wild type 0, dead -1); higher = more abundant; growth selection in yeast, the domain comes from the species named
Settings: Homo sapiens

In order of rising abundance fitness:
1. RELEAFDERFKQRRIKLGVTQADVGSALANLKIPGVGSLSQSTICRFESLTLSHNNMIALKPILQAWLEEAEGAQREKMNKP [A7D]  -1.11 ± 0.14
2. RELEAFAERFKQRRIKLGVTQADVGSALANLKIPGVGSLSQSTICRFESLTLSHNNKIALKPILQAWLEEAEGAQREKMNKP [M57K]  -0.901 ± 0.15
3. RELEAFAERFYQRRIKLGVTQADVGSALANLKIPGVGSLSQSTICRFESLTLSHNNMIALKPILQAWLEEAEGAQREKMNKP [K11Y]  -0.642 ± 0.36
4. RELEAFAERFKQRRIKLGVTQADVGSALANLKIPGVGSRSQSTICRFESLTLSHNNMIALKPILQAWLEEAEGAQREKMNKP [L39R]  -0.487 ± 0.044
5. RELEAFAERFKQRRIKLGVTQADVGSALANLKIPGVGSLSQSTICRFESLTLSHNNMIALKPILQAVLEEAEGAQREKMNKP [W67V]  -0.412 ± 0.059
6. RELEAFAERFKQRRIKLGVTQADVGSALANLKIPGVGSLSQSTICRFESLTLSHNNMIALKPDLQAWLEEAEGAQREKMNKP [I63D]  -0.41 ± 0.1
7. RELEAFAERFKQRRIKLGVTQADVGSALANLKIPGVGSLSQSTICRFESLTLSHNNMIALKPILQAALEEAEGAQREKMNKP [W67A]  -0.406 ± 0.069
8. RELEAFAERFKQRRIKLGVTQADVGSALANLKIPGVGSLSQSTICRFESLTLSHNNMIALKPILQAWLEEAMGAQREKMNKP [E72M]  -0.349 ± 0.074
9. RELEAFAERFKQRRIKLGVTQADVGSALANLKIPGVGSLSQSTICRFESLTLSHNNMIALKPIMQAWLEEAEGAQREKMNKP [L64M]  -0.323 ± 0.12
10. RELEAFAERFKQRRIKLGVTQADVGSALANLKIPGVGSLSQSTICYFESLTLSHNNMIALKPILQAWLEEAEGAQREKMNKP [R46Y]  -0.307 ± 0.17
11. RRLEAFAERFKQRRIKLGVTQADVGSALANLKIPGVGSLSQSTICRFESLTLSHNNMIALKPILQAWLEEAEGAQREKMNKP [E2R]  -0.266 ± 0.026
12. RELEAFAERFKQRRIKLGVTQADVGSALANLKIPGVGSLSQSYICRFESLTLSHNNMIALKPILQAWLEEAEGAQREKMNKP [T43Y]  -0.238 ± 0.21
13. RELEAFAERFKQRRIKLGVTQADVGSALANLKIPGVGSLSQFTICRFESLTLSHNNMIALKPILQAWLEEAEGAQREKMNKP [S42F]  -0.199 ± 0.098
14. RELEAFAERFKQRRIKLGVTQADVGSALANLKIPGVGSLSQSTICRFESLTLSHNFMIALKPILQAWLEEAEGAQREKMNKP [N56F]  -0.136 ± 0.14
15. RELEAFAERFKQRRIKLGVTQADVGSALANLKIPGVGSLSQSTICRFESLTLSHNNMIALKPILQAWLEEAEGAQRPKMNKP [E77P]  -0.08 ± 0.048
16. RELEAFAERFKQRRIKLGVTQADVGSALANLKIPGVGSLSQSTICRFESLTLSHNNMIALKPILYAWLEEAEGAQREKMNKP [Q65Y]  -0.075 ± 0.059
17. RELEAFAERFKQRRIKLGVTQADVGSALANLKIPGVGSLSQSTICRFESLTLSHNNMIALKPILQAWLEEAEGAPREKMNKP [Q75P]  -0.063 ± 0.065
18. RELEAFAERFKQRRIKLGVTQADVGSALANLKIPGVGSLSQSTICRFESLTLSHNNMIALKPILQAWLEEAEGAQRLKMNKP [E77L]  -0.053 ± 0.031
19. RELEAFAERFKQRRIKLGVTQADVGSALANLKIPGVGSLSQSTICRFESLTLSHNNMIALKPILQAWLEEAEGAIREKMNKP [Q75I]  -0.051 ± 0.088
20. RELEDFAERFKQRRIKLGVTQADVGSALANLKIPGVGSLSQSTICRFESLTLSHNNMIALKPILQAWLEEAEGAQREKMNKP [A5D]  -0.043 ± 0.085
21. RELEAFAERFKQRRIKLGVTQADVGSALANLKIPGVGSLSQSTICRFESLTLSHCNMIALKPILQAWLEEAEGAQREKMNKP [N55C]  -0.036 ± 0.13
22. RELEAFAERFKQRRIKLGVTQADVGSALANLKIPGVGSLSQSTICRFESLTLSHNNMIALKPILQAWLEEAEGAQREKMRKP [N80R]  -0.032 ± 0.034
23. RELEAFAERFKQRRIKLGVTQADVGSALANLKIPGVGSLSQSTICRFESLTLSHNNMIALKPILQAWLEEAEGAMREKMNKP [Q75M]  -0.025 ± 0.06
24. RELEAFAERFKQRRIKLGVTQADVGSALANLKIPGVGSLSQSTICRFESLLLSHNNMIALKPILQAWLEEAEGAQREKMNKP [T51L]  -0.022 ± 0.031
25. RELEAFAERFKQRRIKLGVTQADVGSALANLKIPGVGSLSQSTICRFESLTLSHNNMIALKPILQAWLEEAEGAQREVMNKP [K78V]  -0.019 ± 0.057
26. RELEAFAERFKQRRIKLGVTQADVGSALANLKIPGVGSLSQSTICRFESLTLSHNNMIALKPILQAWLEEAEGMQREKMNKP [A74M]  -0.016 ± 0.032
27. RELEAFAERFKQRRIKLGVTQADVGSALANLKIPGVGSLSQSTICRFETLTLSHNNMIALKPILQAWLEEAEGAQREKMNKP [S49T]  0.001 ± 0.035
28. RELEAFAERFKQRRIKLGVTQADVGSALANLKIPGVGSLSQSTICRFESLTLSHNNMIALKPILQAWLEEAEGAQREFMNKP [K78F]  0.003 ± 0.23
29. RELEAFAERFKQRRIKLGVTQADVGSALANLKIPGVGSLSQSTICRFESLTLSHNHMIALKPILQAWLEEAEGAQREKMNKP [N56H]  0.004 ± 0.091
30. RELEAFAERFKNRRIKLGVTQADVGSALANLKIPGVGSLSQSTICRFESLTLSHNNMIALKPILQAWLEEAEGAQREKMNKP [Q12N]  0.031 ± 0.042
31. RELEAFAERFKQRRIKLGVTQADVGSALANLKIPGVGSLSQSTICRFESLTLSHNNMIALKPILQAWLEEAEGAQMEKMNKP [R76M]  0.044 ± 0.032
32. RELEAFANRFKQRRIKLGVTQADVGSALANLKIPGVGSLSQSTICRFESLTLSHNNMIALKPILQAWLEEAEGAQREKMNKP [E8N]  0.063 ± 0.091
33. RELEAFAERFKQRRIKLGVTQADVGSALANLKIPGVGSLSISTICRFESLTLSHNNMIALKPILQAWLEEAEGAQREKMNKP [Q41I]  0.074 ± 0.14
34. RELEAFAERFKQRRIKLGVTQPDVGSALANLKIPGVGSLSQSTICRFESLTLSHNNMIALKPILQAWLEEAEGAQREKMNKP [A22P]  0.13 ± 0.28
